Reference: the DeepSol protein solubility set

Test: soluble on expression in E. coli; label from the status in PepcDB or PDB records

Row | Sequence | soluble on expression in E. coli
1 | MALFFRTRDRPLRPGDPYPLGSNWIEDDDGVNFSLFSENAEKVELLLYSLTNQKYPKEIIEVKNKTGDIWHVFVPGLRPGQLYAYRVYGPYKPELGLRFNPNKVLIDPYAKAINGSVIWNDAVFGYKIGDQNQDLTYDERDSGEYVPKSVVINPYFEWDDEDFIKGKKVPLKDTVIYEVHVKGFTKLRLDLPENIRGTYEGLASEQMISYLKDLGITTVELMPVFHFIDQRFLTDKGLTNYWGYDPINFFSPECRYSSTGCLGGQVLSFKKMVNELHNAGIEVIIDVVYNHTAEGNHLGPTLSFRGIDNTAYYMLQPDNKRYYLDFTGTGNTLNLSHPRVIQMVLDSLRYWVTEMHVDGFRFDLAAALARELYSVNMLNTFFIALQQDPILSQVKLIAEPWDVGQGGYQVGNFPYQWAEWNGKYRDSIRRFWRGEALPYSEIANRLLGSPDIYLGNNKTPFASINYVTSHDGFTLEDLVSYNQKHNEANGFNNQDGMNENYSWNCGAEGPTNDQNVVICREKQKRNFMITLLVSQGTPMILGGDELSRTQRGNNNAFCQDNEITWFDWNLDERKSKFLEFVKKMIQFYRAHPAFRRERYFQGKKLFGMPLKDVTFYTLEGREVDEKTWSSPTQLVIFVLEGSVMDEINMYGERIADDSFLIILNANPNNVKVKFPKGKWELVISSYLREIKPEERIIEGEKELEIEGRTALVYRRIEL | soluble
2 | MALILTFLGKSGVARTKIAIAAAKLLASQGKRVLLAGLAEPVLPLLLEQTLTPDPQQIAPNLEVVQFQSSVLLERNWEEVKKLEAQYLRTPIIKEVYGQELVVLPGMDSALALNAIREYDASGKYDAIVYDGTGDAFTLRMLGLPESLSWYVRRFRQLFVNSDLGKTIAESPLIQPLISSFFNVNWTADNFAQPTNQVNNFLDKGKEALADPKRVAAFLVTTADPLEVVSVRYLWGSAQQIGLTIGGVIQVSSQTEGDLSAEFTPLSVTVVPDVTKGDWQPLIDALPNFVEQAEQAPKPITIDTHNRQVRLFLPGFDKKQVKLTQYGPEVTVEAGDQRRNIFLPPALSGRPITGAKFQNNYLIISFLEHHHHHH | soluble
3 | MALKNNTLWTGPKPEANCIIEYGKQNPDSKLTLILVKNGGIVNGYVTLMGASDYVNTLFKNKNVSINVELYFDATGHILPDSSSLKTDLELKYKQTADFSARGFMPSTTAYPFVLPNAGTHNENYIFGQCYYKASDGALFPLEVTVMLNKRLPDSRTSYVMTFLWSLNAGLAPETTQATLITSPFTFSYIREDD | soluble
4 | MALKTAVHEKIMNDVVLAVKKNAEWKVLIVDQLSMRMVSACCKMHEIMSEGITLVEDINRRREPLPLLEAVYLITPTEESVKCLMADFQNPDNPQYRGAHIFFTEACPEELFKELCKSTTARFIKTLKEINIAFLPYESQIFSLDSPDTFQVYYNPSRAQGGIPNKERCAEQIATLCATLGEYPSVRYRSDFDENASFAQLVQQKLDAYRADDPTMGEGPQKDRSQLLILDRGFDPISPLLHELTFQAMAYDLLPIENDVYKYVNTGGNEVPEKEVLLDEKDDLWVEMRHQHIAVVSQNVTKKLKQFADEKRMGTAADKAGIKDLSQMLKKMPQYQKELSKYSTHLHLAEDCMKQYQQHVDKLCKVEQDLAMGTDADGEKIRDHMRNIVPILLDQKISAYDKIRIILLYIIHKGGISEENLAKLVQHAHIPAEEKWIINDMQNLGVPIIQDGGRRKIPQPYHTHNRKERQADHTYQMSRWTPYMKDIMEAAVEDKLDTRHYPFLNGGGPRPSCQQPVSVRYGHWHKDKGQASYKSGPRLIIFVVGGISYSEMRSAYEVTQTAKNNWEVILGSTHILTPEGLLRDLRKISNP | soluble
5 | MALTFTQAVSKLTSKFPHLNLVEFNGVRYPTVIVCPIHGRVTCSTFKSMLDSKSGCPKCASYGVNSHKIPEDTIDKLSKNTVLEDTVTGETLTFPSRASAARSLGINPAAITDRIKGRVHTETLLAGRYKVHICTK | not soluble
6 | MAMLGDQSFAAVKRDVPVDPDRQANDYVRCVADAVTREVGGSWEVVLFRQDSPNAFALPGGKIGVHTGMLRIARNQDQLATVLAHEVAHVLSRHANERLSQQVAVQQGLNAMQALADPSSSSGKTLMGLLGLGAQYGILMPYSRTQESEADLLGLDLMARAGFDPRQSIELWNNMANSGGGQPIEFLSTHPSHATRMQDLAKRMPRALDLQRQAAAQGHRPQCDGIRAGGGLEHHHHHH | not soluble
7 | MAMNNILGLFAQSPLKPLQKHSVKVTECSELLEPFFEATFKQDWDEAIKVREQIIDLERRADALKREIRLKLPRGLFLPVERTDLLELVTQLDKLANYSRDISGRIIGRQLVIPEAMQATFRKFLSRSLDSTRQVRKVLAELDKLLETGFRGRELKFVNNMILELDQIEDDTDQIQIVLRRTLRGLEQEFNPIDVIFLYKCIERVSILADQAQRVGSRIELMLAKALEHHHHHH | soluble
8 | MAMQFVMRLAREFRRADWRRMLSDMSATELGEWGDYFRMQSFSDVWMDAQFASLKALIVRMVSGSSDAAVADFSLLPEENGIPERTDEELMHLGEGISGGVRYGPDSQPGHLEHHHHHH | not soluble
9 | MANDIVPQDENGAGMPVEFDASTITGEEKAAILLLSLNEQDAAGIIRHLEPKQVQRVGSAMARAKDLSQEKVSAVHRTFLEDIQKYTNIGMGSEDFMRNALVAALGEDKANNLVDQILLGTGSKGLDSLKWM | not soluble
10 | MANDKIVIHGARAHNLKNIDVTIPRDKMVVVTGLSGSGKSSLAFDTLYAEGQRRYVESLSAYARQFLGQMDKPDVDSIDGLSPAISIDQKTTSKNPRSTVGTVTEINDYLRLLFARVGHPICPNDHIEITSQSVEQMVDKVLELPERTKIQILAPVVVKKKGQHKKVFEMIQREGYVRMRVDGETYDVSEAPELEKNKKHDIAIVIDRIVVKEGIRSRLFDSFEAALRLAEGYAIVDVIGQEEMLFSEHYACPYCGFTVGELEPRLFSFNAPFGACPDCDGLGVKLEVDKDLVIPDPTKTLREGAIVPWNPISSQYYPQMLEQAATSFGIDMDTPFEELPADQQEIILNGSGEKNFHFHYENDFGGVRDVEVPFEGILKNIKRRYHETNSDFTRDQMRLYMTELTCRSCQGYRLNPQALAVKINGTHIGEVSELAIKNAVQFFEGVSLSEQETTIARPILKEVEDRLTFLKNVGLDYLTLSRAAGTLSGGEAQRIRLATQIGSNLSGVLYILDEPSIGLHQRDNDRLIDSLKKMRDLGNTLIVVEHDEDTMMASDYLIDVGPGAGHLGGEIVAAGTPEEVAKNPHSLTGQYLSGKKVIPVPKERRKGNGKAIKVTGASENNLKNVSVEFPLGEFVAVTGVSGSGKSTLVNQILKKALAQKLNRNSNKPGKHKSITGYEAIEKIVDIDQSPIGRTPRSNPATYTSVFDDIRDLFAQTNEAKVRGYKKGRFSFNVKGGRCEACRGDGIIKIEMHFLPDVYVPCEVCHGKRYNSETLEVHYKGKNISDILDMTVEDAVEFFKHIPKIHRKLQTIVDVGLGYVTLGQPATTLSGGEAQRMKLASELHKNSNGKNFYILDEPTTGLHTDDIARLLLVLERLVEAGNTVLVIEHNLDVIKSADHVIDLGPEGGDGGGTIVATGTPEEVAKVKDSYTGYYLKRVLK | not soluble
11 | MANLKSLPVGDKAPEVVHMVIEVPRGSGNKYEYDPDLGAIKLDRVLPGAQFYPGDYGFIPSTLAEDGDPLDGLVLSTYPLLPGVVVEVRVVGLLLMEDEKGGDAKVIGVVAEDQRLDHIQDIGDVPEGVKQEIQHFFETYKALEAKKGKWVKVTGWRDRKAALEEVRACIARYKG | soluble
12 | MANPLYQKHIISINDLSRDDLNLVLATAAKLKANPQPELLKHKVIASCFFEASTRTRLSFETSMHRLGASVVGFSDSANTSLGKKGETLADTISVISTYVDAIVMRHPQEGAARLATEFSGNVPVLNAGDGSNQHPTQTLLDLFTIQETQGRLDNLHVAMVGDLKYGRTVHSLTQALAKFDGNRFYFIAPDALAMPQYILDMLDEKGIAWSLHSSIEEVMAEVDILYMTRVQKERLDPSEYANVKAQFVLRASDLHNAKANMKVLHPLPRVDEIATDVDKTPHAWYFQQAGNGIFARQALLALVLNRDLVL | soluble
13 | MANPTVIKLQDGNVMPQLGLGVWQASNEEVITAIQKALEVGYRSIDTAAAYKNEEGVGKALKNASVNREELFITTKLWNDDHKRPREALLDSLKKLQLDYIDLYLMHWPVPAIDHYVEAWKGMIELQKEGLIKSIGVCNFQIHHLQRLIDETGVTPVINQIELHPLMQQRQLHAWNATHKIQTESWSPLAQGGKGVFDQKVIRDLADKYGKTPAQIVIRWHLDSGLVVIPKSVTPSRIAENFDVWDFRLDKDELGEIAKLDQGKRLGPDPDQFGG | soluble
